Tests used:
Recombinant NAA10^F128L = target: T1, Recombinant NAA10^F128L (human, UniProt P41227 1-235, F128L, labeled with Monolith NT Protein Labeling Kit RED); test: MST
T1 sequence: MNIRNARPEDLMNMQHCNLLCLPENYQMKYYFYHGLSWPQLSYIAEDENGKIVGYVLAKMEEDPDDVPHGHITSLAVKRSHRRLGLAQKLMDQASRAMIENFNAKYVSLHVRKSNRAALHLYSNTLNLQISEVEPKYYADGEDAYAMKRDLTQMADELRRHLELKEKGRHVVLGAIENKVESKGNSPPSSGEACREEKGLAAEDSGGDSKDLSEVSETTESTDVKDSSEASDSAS

[1] = target: T2, Recombinant NAA10 (wild type) (human, UniProt P41227 1-235, labeled with Monolith NT Protein Labeling Kit RED); test: MST
T2 sequence: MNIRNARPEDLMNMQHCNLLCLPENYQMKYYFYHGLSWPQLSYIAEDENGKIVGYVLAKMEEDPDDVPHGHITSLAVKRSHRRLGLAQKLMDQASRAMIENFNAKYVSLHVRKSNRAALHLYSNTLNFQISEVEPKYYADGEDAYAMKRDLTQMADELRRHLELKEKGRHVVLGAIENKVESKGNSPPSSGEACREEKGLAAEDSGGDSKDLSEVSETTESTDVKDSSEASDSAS

binding result (Recombinant NAA10^F128L): binds | binding result [1]: binds
Binder: EEEIAALRWGRPVGRRRRPVRVYP [EEEI24 oligopeptide]

From paper PMC11603127 (Computational and Structural Biotechnology Journal, 2024)
